Test results: US8158376B2, “Bisubstrate fluorescent probe binding to protein kinases” (University of Tartu, priority 2006, dated 2012)

Columns and labels:
[1] = target: PRK2 (Homo sapiens, UniProt Q16513); assay: Kinase selectivity panel, residual activity; assay type: biochemical
Procedure: (§1) The assay of protein kinases was performed at 30° C. as described previously [Davies et al., Biochem. J. 351 (2000) 95; Murray et al., Biochem. J. 384 (2004) 477]. The results of the testing are expressed as the % of residual activity of the kinase in the presence of the inhibitor at 1 micromolar concentration.

[2] = target: PKBΔph (Homo sapiens, UniProt P31749); assay: Kinase selectivity panel, residual activity; assay type: biochemical; conditions: 1 μM compound, 5 μM ATP, 30° C.
Procedure: as §1

[3] = target: PKBb (Homo sapiens, UniProt P31751); assay: Kinase selectivity panel, residual activity; assay type: biochemical; conditions: 1 μM compound, 50 μM ATP, 30° C.
Procedure: as §1

[4] = target: CDK2/cyclin A (Homo sapiens, UniProt P24941); assay: Kinase selectivity panel; assay type: biochemical; conditions: inhibitor 1 μM; ATP 20 μM; read-out: residual activity (%) CDK2/cyclin A
Procedure: The panel of kinases included all 52 kinases available for testing. To the best of our knowledge, the selectivity profiling has not been carried out with a wide panel of PK before for bisubstrate-type inhibitors.
as §1

[5] = target: T1, cAPK Cα (Homo sapiens, UniProt P17612); assay: Competition: displacement of ARC-TAMRA from complex with cAPK Cα, fluorescence anisotropy, LS 55; assay type: binding; set-up: purchased Biaffin AG
Procedure: A complex was created between 10 nM of ARC-TAMRA and 10 nM of cAPK Cα in 0.500 ml of buffer (50 mM HEPES, 200 mM NaCl, 0.5 g/l BSA, 5 mM DTT, 0.05% TWEEN 20, MilliQ water; pH 7.4). Different compounds were screened for binding to cAPK Cα against fixed concentrations of ARC-TAMRA and cAPK Cα (FIG. 4). 1-3 μl quantities of various dilutions of the solution of the inhibitor were added to 500 μl solution of ARC-TAMRA complex with the kinase and fluorescence anisotropy was measured after each addition of the […] after 10 min delay time.

[6] = target: T1, cAPK Cα; assay: High-throughput displacement of ARC-TAMRA from cAPK Cα, PHERAstar
Procedure: To determine the inhibition constant (Ki), 3-fold serial dilutions of a given inhibitor are performed analogously as for titration experiments. Before the measurement of fluorescence anisotropies the plate is rotated (400 rpm) for 10 minutes at 30° C.

[7] = target: PKA (Homo sapiens, UniProt P17612); assay: Kinase selectivity panel; assay type: biochemical; conditions: inhibitor 1 μM; ATP 20 μM; read-out: residual activity (%) PKA
Summary of the method: (§2)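 Each kinase was tested as one member of a 52-kinase selectivity panel. Kinase reactions were run at 30° C.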

[8] = target: MSK1 (Homo sapiens, UniProt O75582); assay: Kinase selectivity panel; assay type: biochemical; conditions: inhibitor 1 μM; ATP 20 μM; read-out: residual activity (%) MSK1
Summary of the method: as §2

[9] = target: ROCK-II (Homo sapiens, UniProt O75116); assay: Kinase selectivity panel; assay type: biochemical; conditions: inhibitor 1 μM; ATP 20 μM; read-out: residual activity (%) ROCK-II
Summary of the method: as §2

Chain of MSK1 (O75582 whole entry, species assumed): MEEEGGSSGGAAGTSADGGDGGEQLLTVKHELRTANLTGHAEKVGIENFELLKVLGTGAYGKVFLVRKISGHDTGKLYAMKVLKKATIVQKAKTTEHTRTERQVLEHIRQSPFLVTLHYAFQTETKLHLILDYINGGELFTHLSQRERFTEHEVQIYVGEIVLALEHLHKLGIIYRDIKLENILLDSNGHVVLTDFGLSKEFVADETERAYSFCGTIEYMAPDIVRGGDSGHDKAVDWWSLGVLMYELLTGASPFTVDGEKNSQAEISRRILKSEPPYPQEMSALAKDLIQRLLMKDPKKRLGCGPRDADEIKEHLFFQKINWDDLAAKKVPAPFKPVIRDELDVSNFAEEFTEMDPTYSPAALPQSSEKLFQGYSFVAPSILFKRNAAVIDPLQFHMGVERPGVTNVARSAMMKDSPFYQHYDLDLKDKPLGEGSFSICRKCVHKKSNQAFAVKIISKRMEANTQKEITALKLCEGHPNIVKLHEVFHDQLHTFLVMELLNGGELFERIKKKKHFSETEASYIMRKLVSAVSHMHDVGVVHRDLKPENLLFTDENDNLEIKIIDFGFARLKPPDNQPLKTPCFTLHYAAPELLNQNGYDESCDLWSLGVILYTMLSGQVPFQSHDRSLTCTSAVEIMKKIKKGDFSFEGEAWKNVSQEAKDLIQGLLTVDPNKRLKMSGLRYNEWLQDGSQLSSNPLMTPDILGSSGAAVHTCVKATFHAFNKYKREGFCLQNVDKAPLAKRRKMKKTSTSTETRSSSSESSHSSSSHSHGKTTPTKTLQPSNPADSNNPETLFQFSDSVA
Chain of ROCK-II (O75116 whole entry, species assumed): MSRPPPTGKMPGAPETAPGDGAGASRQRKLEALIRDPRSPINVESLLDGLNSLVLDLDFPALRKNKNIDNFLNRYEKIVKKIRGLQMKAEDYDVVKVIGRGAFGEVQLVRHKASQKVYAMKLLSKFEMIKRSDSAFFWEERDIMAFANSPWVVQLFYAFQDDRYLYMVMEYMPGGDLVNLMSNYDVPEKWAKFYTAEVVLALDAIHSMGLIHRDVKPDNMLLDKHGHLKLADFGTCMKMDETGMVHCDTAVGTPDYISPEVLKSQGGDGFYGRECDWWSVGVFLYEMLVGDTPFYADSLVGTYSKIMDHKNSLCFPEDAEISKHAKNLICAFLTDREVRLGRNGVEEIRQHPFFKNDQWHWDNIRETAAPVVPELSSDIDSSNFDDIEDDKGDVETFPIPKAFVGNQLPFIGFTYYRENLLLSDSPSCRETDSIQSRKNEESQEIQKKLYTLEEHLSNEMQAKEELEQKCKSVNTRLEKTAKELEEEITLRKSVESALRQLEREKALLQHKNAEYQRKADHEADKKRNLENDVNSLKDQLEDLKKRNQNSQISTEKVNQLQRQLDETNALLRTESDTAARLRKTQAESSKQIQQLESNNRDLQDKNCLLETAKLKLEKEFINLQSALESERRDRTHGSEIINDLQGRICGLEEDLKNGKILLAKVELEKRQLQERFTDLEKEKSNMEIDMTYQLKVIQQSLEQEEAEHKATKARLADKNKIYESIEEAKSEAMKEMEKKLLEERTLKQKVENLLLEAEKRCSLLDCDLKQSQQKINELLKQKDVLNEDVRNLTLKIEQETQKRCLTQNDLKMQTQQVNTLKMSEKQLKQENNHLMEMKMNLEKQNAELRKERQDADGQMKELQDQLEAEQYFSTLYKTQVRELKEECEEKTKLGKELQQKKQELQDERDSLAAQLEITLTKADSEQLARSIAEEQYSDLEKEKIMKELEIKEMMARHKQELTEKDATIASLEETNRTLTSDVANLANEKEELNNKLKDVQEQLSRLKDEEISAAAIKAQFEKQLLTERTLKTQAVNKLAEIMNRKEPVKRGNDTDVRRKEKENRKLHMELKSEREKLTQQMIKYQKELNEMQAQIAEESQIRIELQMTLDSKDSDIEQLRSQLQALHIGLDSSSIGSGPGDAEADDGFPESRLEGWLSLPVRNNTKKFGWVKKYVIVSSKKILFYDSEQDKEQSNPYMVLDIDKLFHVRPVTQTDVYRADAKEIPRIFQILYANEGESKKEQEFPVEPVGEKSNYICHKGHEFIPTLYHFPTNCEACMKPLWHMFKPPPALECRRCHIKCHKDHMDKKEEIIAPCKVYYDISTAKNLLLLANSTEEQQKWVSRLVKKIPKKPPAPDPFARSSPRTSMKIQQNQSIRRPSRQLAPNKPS
Chain of PKBΔph (P31749 whole entry, stated change not applied): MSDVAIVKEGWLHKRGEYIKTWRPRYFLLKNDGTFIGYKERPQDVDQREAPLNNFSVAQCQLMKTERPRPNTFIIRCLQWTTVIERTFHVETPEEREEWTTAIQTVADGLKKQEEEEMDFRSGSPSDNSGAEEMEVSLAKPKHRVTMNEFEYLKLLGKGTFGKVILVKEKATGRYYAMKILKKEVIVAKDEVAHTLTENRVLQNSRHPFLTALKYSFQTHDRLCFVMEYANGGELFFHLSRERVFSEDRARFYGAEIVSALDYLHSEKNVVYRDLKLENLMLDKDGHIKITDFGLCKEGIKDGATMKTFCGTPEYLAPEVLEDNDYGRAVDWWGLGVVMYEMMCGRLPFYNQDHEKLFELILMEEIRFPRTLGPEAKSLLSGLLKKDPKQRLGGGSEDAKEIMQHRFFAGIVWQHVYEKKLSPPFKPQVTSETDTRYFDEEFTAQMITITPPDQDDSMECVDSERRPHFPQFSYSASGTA
Chain of PRK2 (Q16513 whole entry): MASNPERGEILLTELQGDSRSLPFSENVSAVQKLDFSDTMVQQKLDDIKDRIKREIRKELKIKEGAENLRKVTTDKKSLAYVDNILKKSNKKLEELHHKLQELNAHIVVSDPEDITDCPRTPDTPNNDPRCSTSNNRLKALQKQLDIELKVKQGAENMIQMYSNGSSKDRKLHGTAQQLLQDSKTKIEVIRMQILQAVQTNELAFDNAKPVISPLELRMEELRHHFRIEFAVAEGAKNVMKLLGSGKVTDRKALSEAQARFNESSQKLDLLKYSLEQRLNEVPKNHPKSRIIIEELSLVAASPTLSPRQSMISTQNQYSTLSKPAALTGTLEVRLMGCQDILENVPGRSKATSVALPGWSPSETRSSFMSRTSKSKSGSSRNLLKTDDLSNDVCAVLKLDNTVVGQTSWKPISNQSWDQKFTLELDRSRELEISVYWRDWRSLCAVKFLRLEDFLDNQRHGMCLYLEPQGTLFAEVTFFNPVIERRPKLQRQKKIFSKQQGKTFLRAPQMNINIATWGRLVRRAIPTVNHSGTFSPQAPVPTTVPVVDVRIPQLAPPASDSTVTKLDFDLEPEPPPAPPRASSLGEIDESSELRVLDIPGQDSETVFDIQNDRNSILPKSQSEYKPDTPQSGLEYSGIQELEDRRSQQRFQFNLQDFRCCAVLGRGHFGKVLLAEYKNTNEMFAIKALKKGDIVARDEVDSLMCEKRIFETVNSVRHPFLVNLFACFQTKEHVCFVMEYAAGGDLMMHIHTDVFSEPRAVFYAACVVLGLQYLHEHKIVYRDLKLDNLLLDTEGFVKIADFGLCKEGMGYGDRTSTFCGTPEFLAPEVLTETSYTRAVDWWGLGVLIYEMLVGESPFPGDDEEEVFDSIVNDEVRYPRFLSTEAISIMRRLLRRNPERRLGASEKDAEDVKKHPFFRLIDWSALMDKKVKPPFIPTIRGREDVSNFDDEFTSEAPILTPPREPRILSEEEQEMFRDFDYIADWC
Chain of PKBb (P31751 whole entry): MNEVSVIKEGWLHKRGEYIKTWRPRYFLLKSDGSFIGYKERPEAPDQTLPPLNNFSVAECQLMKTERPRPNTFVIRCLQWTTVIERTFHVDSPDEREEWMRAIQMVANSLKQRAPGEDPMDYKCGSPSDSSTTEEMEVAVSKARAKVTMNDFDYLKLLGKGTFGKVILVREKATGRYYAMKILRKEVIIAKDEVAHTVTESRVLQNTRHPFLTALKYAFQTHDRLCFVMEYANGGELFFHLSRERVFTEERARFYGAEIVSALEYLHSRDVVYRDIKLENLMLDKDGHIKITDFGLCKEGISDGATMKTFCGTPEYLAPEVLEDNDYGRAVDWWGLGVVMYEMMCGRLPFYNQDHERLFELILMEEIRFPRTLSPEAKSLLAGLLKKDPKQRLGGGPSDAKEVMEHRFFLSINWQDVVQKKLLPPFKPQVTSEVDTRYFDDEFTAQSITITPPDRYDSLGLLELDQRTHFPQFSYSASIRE

| Compound | remaining activity at 1 µM [1] | residual activity [2] | remaining activity at 1 µM [3] | remaining activity at 1 µM [4] | IC50 ([5]; 10 nM ARC-TAMRA, 10 nM cAPK Cα) | Kd ([5]; cAPK Cα displacement, read-out: Kd of inhibitor (characterized with the probe)) | Ki ([5]; read-out: Ki (competitive binding)) | Ki [6] | remaining activity at 1 µM [7] | remaining activity at 1 µM [8] | remaining activity at 1 µM [9] |
| --- | --- | --- | --- | --- | --- | --- | --- | --- | --- | --- | --- |
| N=C(N)NCCC[C@@H](NC(=O)[C@@H](CCCNC(=N)N)NC(=O)[C@@H](CCCNC(=N)N)NC(=O)[C@@H](CCCNC(=N)N)NC(=O)[C@@H](CCCNC(=N)N)NC(=O)[C@@H](CCCNC(=N)N)NC(=O)CCCCCNC(=O)[C@H]1O[C@@H](n2cnc3c(N)ncnc32)[C@H](O)[C@@H]1O)C(N)=O [Compound 5, AdcAhx(D-Arg)6-NH2] | ≤ 3% | ≤ 3% | ≤ 3% | 88% | 35 nM | 2.5 nM | 2.5 nM | 1.1 nM | – | – | – |
| N=C(N)NCCC[C@@H](NC(=O)[C@@H](CCCNC(=N)N)NC(=O)[C@@H](CCCNC(=N)N)NC(=O)[C@@H](CCCNC(=N)N)NC(=O)[C@@H](CCCNC(=N)N)NC(=O)[C@@H](CCCNC(=N)N)NC(=O)CCCCCNCCNS(=O)(=O)c1cccc2cnccc12)C(N)=O [Compound 26, H9-Hex(D-Arg)6-NH2] | – | – | – | 73% | – | – | – | – | < 10% | 1% | 0% |
